Data on four molecules can be found in patent EP4772539A1 (Jiangsu Hengrui Pharmaceuticals Co., Ltd., dated 2026).

Where two headings read alike, the source gives them in different places.

For orientation: IC50 means the midpoint of a concentration-inhibition curve. A lower IC50 goes with greater potency. A word on the EC50: it is the concentration giving half of the maximal effect. Read a high EC50 as a less potent agent. As usually defined, the Kd is the constant that tells how readily two partners part at equilibrium. By koff is commonly meant a measure of how fast the partners let go of each other. The term kon denotes a measure of how fast the partners come together. Low readings indicate slower complex formation, high ones faster complex formation.

Test [1] addresses T1, human TIGIT protein expressed on cells (CHOK1-TIGIT) (human, UniProt Q495A1 22-244).
T1 construct: whole, on cells; also called CHOK1-TIGIT cells
T1 sequence (looked up): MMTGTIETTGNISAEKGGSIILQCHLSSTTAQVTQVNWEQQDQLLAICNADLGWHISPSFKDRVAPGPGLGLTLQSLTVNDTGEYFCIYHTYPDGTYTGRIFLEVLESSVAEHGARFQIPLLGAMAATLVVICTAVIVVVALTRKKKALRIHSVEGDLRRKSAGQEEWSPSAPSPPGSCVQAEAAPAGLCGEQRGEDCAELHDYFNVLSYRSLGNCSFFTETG
In words: flow cytometry, blocking of CHOK1-TIGIT cells binding to CHOK1-CD155 cells (competitor: CD155 on cells). (A flow cytometer gives signals particle by particle.)

In test [2] the target is T1, human TIGIT protein expressed on cells …. The test is described as follows: flow cytometry on CHOK1-TIGIT cells.
The target of test [3] is T2, human CTLA4 protein expressed on cells (CHOK1-CTLA4, HEK293-CTLA4) (human, UniProt P16410 36-223).
T2 construct: whole, on cells; also called CHOK1-CTLA4 cells; HEK293-CTLA4 single-positive cells
T2 sequence (looked up): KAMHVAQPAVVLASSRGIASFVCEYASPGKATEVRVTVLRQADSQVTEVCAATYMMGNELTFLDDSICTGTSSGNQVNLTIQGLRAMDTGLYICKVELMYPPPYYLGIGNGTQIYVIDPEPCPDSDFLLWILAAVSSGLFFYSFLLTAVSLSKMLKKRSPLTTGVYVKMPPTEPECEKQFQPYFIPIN
The test is described as follows: flow cytometry on CHOK1-CTLA4 cells.

Test [4] concerns the target T2, human CTLA4 protein expressed on cells …. In words: flow cytometry on CHOK1-CTLA4 cells. The source holds these as a separate data set.
For test [5] the target is unchanged. In words: flow cytometry, blocking of CHOK1-CTLA4 cells binding to CHOK1-CD80 cells (competitor: CD80 on cells).
Test [6] has as its target T3, human TIGIT (Acro Biosystems Cat#TIT-H52H5) (human, UniProt Q495A1 22-141).
T3 construct: Soluble bought protein; also called TIGIT protein; human TIGIT antigen
T3 sequence (looked up): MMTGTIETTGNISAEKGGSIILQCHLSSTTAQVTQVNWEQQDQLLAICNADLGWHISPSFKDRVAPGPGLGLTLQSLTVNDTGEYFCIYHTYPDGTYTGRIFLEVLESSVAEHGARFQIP
In words: SPR (Biacore 8K), antibody captured on Protein A chip, antigen as analyte, 1:1 binding.

Test [7] concerns the target T3, human TIGIT (Acro Biosystems …). In words: SPR (Biacore 8K), antigen captured by anti-His antibody on CM5 chip, antibody as analyte, 1:1 binding. For orientation: Surface plasmon resonance follows binding to a sensor surface in real time, without labels.

B1: Anti-TIGIT antibody RG6058 (antibody, V domains shown)
VH: EVQLQQSGPGLVKPSQTLSLTCAISGDSVSSNSAAWNWIRQSPSRGLEWLGKTYYRFKWYSDYAVSVKGRITINPDTSKNQFSLQLNSVTPEDTAVFYCTRESTTYDLLAGPFDYWGQGTLVTVSS
VL: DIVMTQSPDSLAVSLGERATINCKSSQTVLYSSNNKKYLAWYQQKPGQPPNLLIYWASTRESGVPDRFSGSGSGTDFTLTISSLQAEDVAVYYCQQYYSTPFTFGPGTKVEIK
Take B1: in test [1], the IC50 was determined as 0.67 nM. In addition, the EC50 in test [2] came out at 0.48 nM.

B2: Anti-CTLA4 antibody Tre (antibody, V domains shown)
VH: QVQLVESGGGVVQPGRSLRLSCAASGFTFSSYGMHWVRQAPGKGLEWVAVIWYDGSNKYYADSVKGRFTISRDNSKNTLYLQMNSLRAEDTAVYYCARDPRGATLYYYYYGMDVWGQGTTVTVSS
VL: DIQMTQSPSSLSASVGDRVTITCRASQSINSYLDWYQQKPGKAPKLLIYAASSLQSGVPSRFSGSGSGTDFTLTISSLQPEDFATYYCQQYYSTPFTFGPGTKVEIK
Turning to B2, the EC50 in test [3] was 1.27 nM; in test [4] it was 0.53 nM. The molecule further gave an IC50 in test [5] of 0.49 nM.

B3: anti-CTLA4/TIGIT antibody As-3 (bispecific antibody, human IgG1, kappa)
heavy 1: QVQLVESGGGVVQPGRSLRLSCAASGFTFSSYTMHWVRQAPGKGLEWVTFISYDGNNKYYADSVKGRFTISRDNSKNTLYLQMNSLRAEDTAIYYCARTGWLGPFDYWGQGTLVTVSSGGGGSSGAPRFLTRPKASVVSVGKDATLSCQIVGNPFPQVSWEKDKQPVTAGVRFRLAQDGDLYRLKILDLQLSDSGQYVCRARNAHGEAFACLGLQVDAEADKTHTCPPCPAPELLGGPDVFLFPPKPKDTLMISRTPEVTCVVVDVSHEDPEVKFNWYVDGVEVHNAKTKPREEQYNSTYRVVSVLTVLHQDWLNGKEYKCKVSNKALPLPEEKTISKAKGQPREPQVYTLPPCREEMTKNQVSLWCLVKGFYPSDIAVEWESNGQPENNYKTTPPVLDSDGSFFLYSKLTVDKSRWQQGNVFSCSVMHEALHNHYTQKSLSLSPGK
light 1: not shown
heavy 2: EVQLVQSGAEVKKPGASVKVSCKASGYTFTNYWMHWVRQAPGQGLEWMGRIDPDSTGSKYNEKFKTRVTMTRDTSTSTVYMELSSLRSEDTAVYYCAREGAYGYYFDYWGQGTLVTVSSASTKGPSVFPLAPSSKSTSGGTAALGCLVKDYFPEPVTVSWNSGALTSGVHTFPAVLQSSGLYSLSSVVTVPSSSLGTQTYICNVNHKPSNTKVDKKVEPKSCDKTHTCPPCPAPELLGGPDVFLFPPKPKDTLMISRTPEVTCVVVDVSHEDPEVKFNWYVDGVEVHNAKTKPREEQYNSTYRVVSVLTVLHQDWLNGKEYKCKVSNKALPLPEEKTISKAKGQPREPQVCTLPPSREEMTKNQVSLSCAVKGFYPSDIAVEWESNGQPENNYKTTPPVLDSDGSFFLVSKLTVDKSRWQQGNVFSCSVMHEALHNHYTQKSLSLSPGK
light 2: DIQMTQSPSSLSASVGDRVTITCRASENIYSYLAWYQQKPGKSPKLLIYNARTLAEGVPSRFSGSGSGTDFTLTISSLQPEDFATYYCQYHSGSPLPFGGGTKVEIKRTVAAPSVFIFPPSDEQLKSGTASVVCLLNNFYPREAKVQWKVDNALQSGNSQESVTEQDSKDSTYSLSSTLTLSKADYEKHKVYACEVTHQGLSSPVTKSFNRGEC
In test [6], B3 registered a Kd of 0.0411 nM, a koff of 7.13e-05 s⁻¹ and an association rate constant (kon) of 1.73e+06 M⁻¹ s⁻¹. For the same molecule, in test [7], binding was put at a Kd of 0.535 nM, the koff was 0.00052 s⁻¹ and the kon came out at 972000 M⁻¹ s⁻¹. In test [1], this molecule yielded an IC50 of 1.44 nM. This molecule also registered an EC50 in test [2] of 0.72 nM.

B4: anti-CTLA4/TIGIT antibody S-15 (bispecific antibody)
heavy: EVQLVQSGAEVKKPGASVKVSCKASGYTFTNYWMHWVRQAPGQGLEWMGRIDPDSTGSKYNEKFKTRVTMTRDTSTSTVYMELSSLRSEDTAVYYCAREGAYGYYFDYWGQGTLVTVSSASTKGPSVFPLAPSSKSTSGGTAALGCLVKDYFPEPVTVSWNSGALTSGVHTFPAVLQSSGLYSLSSVVTVPSSSLGTQTYICNVNHKPSNTKVDKKVEPKSCDGGGGSGGGGSGGGGSQVQLVESGGGVVQPGRSLRLSCAASGFTFSSYGMHWVRQAPGKGLEWVAVIWYDGSNKYYADSVKGRFTISRDNSKNTLYLQMNSLRAEDTAVYYCARDPRGATLYYYYYGMDVWGQGTTVTVSSGGGGSSGAPRFLTRPKASVVSVGKDATLSCQIVGNPFPQVSWEKDKQPVTAGVRFRLAQDGDLYRLKILDLQLSDSGQYVCRARNAHGEAFACLGLQVDAEADKTHTCPPCPAPELLGGPDVFLFPPKPKDTLMISRTPEVTCVVVDVSHEDPEVKFNWYVDGVEVHNAKTKPREEQYNSTYRVVSVLTVLHQDWLNGKEYKCKVSNKALPLPEEKTISKAKGQPREPQVYTLPPSREEMTKNQVSLTCLVKGFYPSDIAVEWESNGQPENNYKTTPPVLDSDGSFFLYSKLTVDKSRWQQGNVFSCSVMHEALHNHYTQKSLSLSPGK
light 1: B3 light 2
light 2: DIQMTQSPSSLSASVGDRVTITCRASQSINSYLDWYQQKPGKAPKLLIYAASSLQSGVPSRFSGSGSGTDFTLTISSLQPEDFATYYCQQYYSTPFTFGPGTKVEIKGGGGSGIPPKIECLPIDISIDEGKVLTVASAFTGEPTPEVTWSTGGRKIHSQEQGRFHIENTDDSTTLTIKDVQKQDGGLYTLTLRNEFGSDSATVNIHIRSI
notes: Symmetric bispecific antibody with one kind of heavy chain and two kinds of light chain
For the molecule B4, the EC50 in test [4] was found to be 3.35 nM; in test [2], 0.43 nM. The IC50 in test [1] came to 0.42 nM; in test [5], 1.42 nM.
